According to patent US11738099B2, “Molecular probes and methods of use” (CASE WESTERN RESERVE UNIVERSITY, priority 2014, dated 2023):
Entries after “also recorded” stand apart in the source; their conditions may differ. Where a SMILES comes first, the peptide text is derived from it. The star is where a group is joined. X1 = O=C(O)CN1CCN(CC(=O)O)CCN(CC(O)Cn2cc(CCCC(=O)*)nn2)CCN(CC(=O)O)CC1; PEG2 = NCCOCCOCCC(=O)O

Assays:
[1] = system: LNCaP prostate tumor xenografts; assay: T1-weighted MRI at 1 Tesla, LNCaP tumors (Example 3); format: in vivo, mouse; conditions: 0.1 mmol/kg i.v., up to 30 min
Description: Male athymic nude mice were purchased from Case Comprehensive Cancer Center (Cleveland, Ohio, USA) and housed in the Animal Core Facility at Case Western Reserve University. All animal experiments were performed in accordance with the animal protocol approved by the CWRU Institutional Animal Care and Use Committee. Athymic nude male mice were subcutaneously injected with 100 μL cell suspension (4×10^7 cells/mL) in matrigel matrix (Corning Bioscience, Corning, N.Y.) to initiate tumors. Mice with tumors of 5-8 mm in diameter were used for imaging studies.
MR images of tumor bearing mice were acquired on an Aspect M3 small animal MRI scanner (1 Tesla). Mice were placed on a holder with the temperature maintained at 37° C., with isoflurane/oxygen mixture supplied to the mice through a nose cone. A thin catheter filled with PBS was connected to a tail vein of the mice. After mice were placed in the coil, a pilot scan was performed to adjust mice to the proper location in the coil. […] Images were exported into DICOM data, which were then processed and analyzed using Matlab (Natick, Mass., USA). The contrast to-noise ratio of tumors in the images were calculated as the difference between tumor mean intensity minus muscle mean intensity, divided by the noise.

[2] = system: PC-3 human prostate cancer xenograft; assay: MRI of PC-3 xenograft (Example 2); format: in vivo, mouse; conditions: 0.1 mmol-Gd/kg intravenous
Excerpt: The same contrast agent also works for prostate cancer imaging. We then tested the effectiveness of targeting EDB-FN with the contrast agent for prostate cancer MRI in male nude mice bearing primary PC-3 human prostate cancer xenograft.

[3] = mouse, in vivo
Description: (§1) PC3 tumor-bearing athymic nude mice (sixteen mice) were randomly divided into 4 groups (four mice each group). […] The animals were sacrificed at 2 and 7 days after injection. The blood and tissue samples, including brain, femur, heart, lung, liver, muscle, spleen, and kidney, were collected and weighed. The tissue samples were then cut into small pieces and mixed with ultra-pure nitric acid (1.0 mL, 70%, EMD, Gibbstown, N.J.). The tissue samples were liquefied within 2 weeks and the solution was transferred to a centrifuge tube and centrifuged at 14,000 rpm for 15 min. The supernatant (0.2 mL) was diluted with 9.8 mL deionized water and further centrifuged at 14,000 rpm for 15 min. The Gd(III) concentration in the final supernatant was measured by ICP-OES. […] The Gd content in different organ/tissues was calculated as the percentage of injected dose per gram of organ/tissues (% Dose/g).

[4] = Gd biodistribution (ICP-OES); conditions: 1 week after injection
Description: as §1

[5] = In vitro complexation stability in PBS with Cu2+, Ca2+, Zn2+; format: physicochemical
Description: FIGS. 16(A-B) illustrate in vitro complexation stability and transmetallation analysis of ZD2-Gd(HP-DO3A). A) relative Gd content of ZD2-Gd(HP-DO3A) assayed during 200-min incubation of the agent in phosphate buffer saline (PBS) with and without Cu^2+, Ca^2+, or Zn^2+ ions. […] B) In vitro transmetallation analysis of MultiHance, OmniScan, ProHance (abbreviated as Pro.), and ZD2-Gd(HP-DO3A) (abbreviated as ZD2) in mouse senim.

[6] = In vitro transmetallation in serum; format: in vitro ADME, human; conditions: blood plasma containing Cu2+, Ca2+, Zn2+; vs MultiHance and OmniScan
Description: […] The plasma mixtures were transferred to CF-10 centrifugal filters (molecular weight cut-off 10 KDa) and centrifuged at 4,000 rpm and 25° C. for 150 min. During centrifugation, the solution in the upper reservoir was agitated using a pipette every 20 min for the plasma mixtures. The content of metal ions in both the upper reservoir and the filtrates was determined by ICP-OES after appropriate dilution. The degree of transmetallation of the contrast agents with Zn(II) or Cu(II) ions in the plasma was evaluated using the percentage of Zn(II) or Cu(II) ions filtered through the membrane, calculated as Zn(Cu) %=(concentration of Zn(II) or Cu(II) in the filtrates)/(total Zn(II) or Cu(II) concentration before centrifugal filtration)×100. Human serum was used a control.

[7] = system: 4T1 metastatic tumors; assay: MRI of breast cancer metastatic tumor model; format: in vivo, mouse
Description: In order to construct a metastatic tumor model, 0.2×10^6 4T1 tumor cells undergone 5 days of TGFβ induction were injected through left ventricle of heart, resulting in the spread of tumor cells primarily in brain, lung, liver, lymph node, adrenal gland, chest, and bone marrow. Bioluminescent images of the mice at two weeks were used to monitor the growth of tumors. To assess the targeting capacity of l-ZD2-Cy5, brain and lung were harvested from the mice three hours after 10 nmol l-ZD2-Cy5 were injected. […] Normal brain and lung harvested from normal mice injected with l-ZD2-Cy5 were used as negative controls. Examination of bigger metastatic tumors in lymph nodes and adrenal gland, as shown in FIG. 8B further backed up the targeting efficiency of l-ZD2-Cy5.
Breast cancer metastatic tumor model was imaged at two weeks in order to validate the properties of l-ZD2-Gd(HP-DO3A) in detecting breast cancer micrometastases. In FIG. 9A, a mouse developed with metastatic tumors in lymph nodes, adrenal glands, and chest was imaged in MRI after l-ZD2-Gd(HP-DO3A) injection, in conjugation with BLI validation of tumor positions.

In the case of CC(C)[C@H](NC(=O)[C@@H](NC(=O)CCOCCOCCNC(=O)CCCc1cn(CC(O)CN2CCN(CC(=O)O)CCN(CC(=O)O)CCN(CC(=O)O)CC2)nn1)[C@@H](C)O)C(=O)N[C@@H](CCCNC(=N)N)C(=O)N[C@H](C(=O)N[C@@H](CO)C(=O)N[C@@H](C)C(=O)N[C@@H](CC(=O)O)C(=O)O)[C@@H](C)O (stereo partly drawn) [ZD2-Gd(HP-DO3A)] ({X1-PEG2}-TVRTSAD-OH), the “signal enhancement in LNCaP tumors” value [1] is reported as “significantly lower signal enhancement; also recorded: did not produce significant contrast enhancement”, the tumor contrast enhancement [2] is reported as “robust tumor enhancement for at least 30 min” and the “Gd(III) concentration in most of the organs, including the brain, heart, and skin” value [3] is reported as “below the detection limit”. The “tissue retention of Gd” value [4] was “same low tissue retention as ProHance”, the “relative Gd content” value ([5]; 200-min incubation in PBS with and without Cu2+, Ca2+, or Zn2+) was “No decrease in Gd content” and the “transmetallation with endogenous metal ions” value ([5]; 24 hours of incubation with Cu2+, Ca2+, Zn2+ in PBS (pH=7.4)) was “no evident transmetallation”. The stability against transmetallation [6] was “same high stability as ProHance”, the “tumor enhancement in MRI” value ([7]; metastatic tumors at two weeks) was “All five tumors indicated in BLI showed enhancement in MRI” and the “signal enhancement in tumor by CNR measurement” value ([7]; tumor vs liver, kidney, bladder, muscle) was “significant higher signal enhancement”.
